Experimental data from the nanobody polyreactivity screen of Harvey et al. (2022).

Test: yeast display, Sf9 membrane polyspecificity reagent, FACS + sequencing; frameworks hold sequencing errors
How it was run: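 Nanobodies from a synthetic yeast display library (Saccharomyces cerevisiae BJ5465), induced 36–48 hours with galactose, were stained 1 hour at 4 °C with 10% biotinylated, detergent-solubilized Sf9 membrane reagent, enriched on streptavidin microbeads, then FACS-sorted. Anti-HA (expression) and streptavidin (reagent binding) fluorescence set low and high (top ~1%) gates. Polyreactivity labels come from the gate of origin. Genes were colony-PCR amplified, MiSeq 2 × 250 sequenced and filtered by CDR length.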

| Sequence | polyreactivity (PSR sort gate) |
| --- | --- |
| QVQLVETEVGLDQAGGSLPLSCAASGYTFWAYAMGWYRQSPGKERELVAGISSRGSRTYYADSVKGRFTISRDNAKNTVYLQMNSLKPEDTAVYYCNALRTPPGYYPPFDYWGQGTQVTVSS | high polyreactivity |
| QVQLVETGGGIFQAGGSIRLSCAASGRTFSTYAKGWYRQAPGKERELVAGISRGGGSTYYADSVKGRFTISRDNAKNTVYLLMNSLKPEDTAVYYCAAKRPQYYVQYGYWGQGSQVTVSS | high polyreactivity |
| QVQLVETGGGIVQAGGSLRLRCAAAGRHCYHNVMGWYRQAPGKERELVAGIRSRGGSTSYADSVKGRFTISRDNSKNTVYLQMNSLKPEDTAVYYCATDTTLWYVLYDYWGQGTQVTVSS | low polyreactivity |
| QVQLVETGGGLFQAGVSLRLSCAASGSTFDGYVMGWYRQAPGKERELVAAISGSGGSTYYADSVKGRFTISRDHAQNTDYLQMISLKPEDTAVYYCAADSWWYDDYSEGDYWGQGTQVTVSS | low polyreactivity |
| QVQLVETGGGLVHAGGSLRLSCAASGFIFTEYAMGWYRQAPGKEMELVAAISRSDDATHYADSVKGRFTISRDNAKNTVSLQMNSLKTEDTAVYNCTVAPEGYSLVDTSPYYYWGQGTQVTVSS | low polyreactivity |
| QVQLVETGGGLVHAGGSLRLSCAASGSIFGLYAMGWYRQAPGKERELVAAITVSGGSTYYADSVKGRFTISRDNAKNTVYLQLNSLKPEDTAVYYCAARAGWPLYQYYYWGQGTQVTVSS | high polyreactivity |
| QVQLVETGGGLVKAGGSLRLSCAASGRIFLVNDMGWYRQAPGKERELVARINGGITNYADSVKGRFTISRDNAKNTVYFQMISLKPEDTAVYYCAARSRKYYSYYYWGQGTQLTVSS | high polyreactivity |
| QVQLVETGGGLVLAGGSLRLSCAASGSTFRLYAMGWYRQAPGTARELVAAITSGGSTYYADAVKGRFTISRDNAKNTVYLQMNSLKPEDTAVYYCARLAGDSTYWWWLYLITQRDDYWGQGTQVTVSS | low polyreactivity |
| QVQLVETGGGLVQAGGILRLSCAASGLIFTGNVMGWYRQAPGKESELVAAISRSGGRTYYADSVKGRFTISRDNAKNTVYLQMNSLKPEDTAVYYCNKVSPERVYYGSYFRYYYWGQGTQVTVSS | high polyreactivity |
| QVQLVETGGGLVQAGGILRLSCAASGRIFVVYAMGWYRQAPGKERELVASNSRGGRTYYADSVKGRFTISRDNEKNTVYLQMNILKTEDTAVYYCAVVVFLKNRDLFDYWGQGTQVTVSS | low polyreactivity |
| QVQLVETGGGLVQAGGSLHLSCAASGIIIYANDMGWYRQAPGKERELVAGISRNGGRTYYADSVKGRFTISRDNAKNTVYLQMNSLKPEDTAVYYCAARGSYTSIFDYWGQGTQVTVSS | high polyreactivity |
| QVQLVETGGGLVQAGGSLLLSCAASGFTLLSYAMGWYRQAPGKERELVAAISESGVSTSYADSVKGRFTISRDNAKNTVYLQMKSLKPEDTAFYYCNKSDFWVVIYDSWGQGTQVTVSS | low polyreactivity |
| QVQLVETGGGLVQAGGSLRISCAASGFTISFYAMAWYRHAPGKERELVAAISSGGRTSYADSVKGRFTISRDNAKNTVYLQMNSLTPEATAVYYCAATNRWYYRAAAAVYAFGYWGHGTQVTVSS | high polyreactivity |
| QVQLVETGGGLVQAGGSLRISCAASGIIYVDNVMGSYRQAPGKERELVAAIDYSGGSTYYADSVKGRFTISRDNAKNNVYFQMNSLKPEDTAVYYCHARTYYGYGMDYWGQGTQVTVSS | low polyreactivity |
| QVQLVETGGGLVQAGGSLRLSCAASGATFNANGMGWYRQAPGKERELVAAISQRAGRTYYADSVKGRFTISRDNAKNTVYLQMNSLKPEDTAVYYCAARYLGGYYFRYYYWGQGTQVTVSS | high polyreactivity |
| QVQLVETGGGLVQAGGSLRLSCAASGFIFRGNAMGWYRQAPGKERELVAAISKRGGSTNYADSVKGRFTISRDNAKNTVYLQMNSLKPEDTAVYYCNAEGIYRQPRGYVYRYDYWGQGTQVTVSS | high polyreactivity |

| Sequence | polyreactivity (PSR sort gate) |
| --- | --- |
| QVQLVETGGGLVQAGGSLRLSCAASGFIFYPYDMGWYRQAPGKERELVAAITQSGGSTYYADSVKGRFTISRDNAKNTVYLQMNSLKQVDTAVYYCAADYAVWHRGQVVEIYDYWGQGTQVTVSS | low polyreactivity |
| QVQLVETGGGLVQAGGSLRLSCAASGFILDYNAKGWYRQAPGKERELVAAITSGGSTNYSDSVKGRFTISRDNAKNTVYLQMNSLKPEDTAVYYCNVRSVSPVHDDGSWGQGTQVTVSS | low polyreactivity |
| QVQLVETGGGLVQAGGSLRLSCAASGFTFYYYAMGWYRQAPGKERELVAAINRSGGSTYYADSLKGRFTISRDNAKNTVYLQMNSLKPEDTAVYYCAAPYVGGSSHGYWGQGTQVTVSS | high polyreactivity |
| QVQLVETGGGLVQAGGSLRLSCAASGFTIRRYTMGWYRQAPGKERELVAAITRGVRTYYADSVKGRFTISRDNAKNTVYLQMNSLKPEDTAVYYCNTAQQSERDYWGQGTQVTVSS | high polyreactivity |
| QVQLVETGGGLVQAGGSLRLSCAASGGIFLVNDMGWYRPAPGKERELVAAISGSGGSTYYADSVKGRVTISRDNAKNTVYLQMNSLKPEDTAVYYCAAVGTHKAGGAYNYWGQGTQVTVSS | low polyreactivity |
| QVQLVETGGGLVQAGGSLRLSCAASGGIIRVYVMGWYIQAPGKERELVAAISRRGGSTYYADSVKGRFTISRDNAKNTVYLKMNSLKPEDTAVYYCAAYSTGTEFDYWGQGTQVSVSS | high polyreactivity |
| QVQLVETGGGLVQAGGSLRLSCAASGIFVSYAMGWYRQAPGKERELVAAIRYSGDSTYYADSVKGRFTISRDNAKNTVYLQMNSLKPEDTAVYYCAATKGWSRYEYWGQGTQVTVSS | low polyreactivity |
| QVQLVETGGGLVQAGGSLRLSCAASGIIFSKYAMGRYRQAPGKERELVAAITRSGGSTYYADSVKGRFTISRDNAKNTVYLQMNSLKPEDTAVYYCAKRSGTPTNRQRYGYWGQGTQVTVSS | high polyreactivity |
| QVQLVETGGGLVQAGGSLRLSCAASGITIRPYTMGWYRQAPGKERELVARISRRGGSTYYADSVKGRFTISRDNAKNTVYLQMNSLKPEDTAVYYCATRSRAHISPYDYWGQGTQVTVSS | high polyreactivity |
| QVQLVETGGGLVQAGGSLRLSCAASGLILGGYAMGWYRQAHGKERELVAAITRGGGSTFYADSVKGRFTISRDNAKNTVYLQMNSLKPEDTAVYYCAKRYPYRPPGPRYRGLSGYVYWGQGTQVTVSS | high polyreactivity |
| QVQLVETGGGLVQAGGSLRLSCAASGLTFDENAMGWYRQAPGINYSGASTYYADSVKGRFTISRDNAKNTVYLQMNSLKPEDTAVYYCAAEVVAQMNYWGQGTQVTVSS | low polyreactivity |
| QVQLVETGGGLVQAGGSLRLSCAASGNIFRAYPMGWYRQAPGKERELVARINSGAITNYADSVKGRFTISRDNAKNTVYLQMNSLKPDDTAVYYCARDTQYPYYFLMDYWGQGTQVTVSS | low polyreactivity |
| QVQLVETGGGLVQAGGSLRLSCAASGPTFYANAKGWYRQAPGKERELVAVISWGSGSTYYADSVKGRFTISRDNAKNTVYLQMNSLKPEDTAVYYCAKSFYYEGTGDYWGQGTQVTVSS | low polyreactivity |
| QVQLVETGGGLVQAGGSLRLSCAASGRIFGSYAMGWYRQAPGKERELVASIRSGGRTKYADSVKGRFTISRDNAKNTVYFQMNSLKPEDTAVYYCAVPIEWDYGYWGQGTQVTVSS | low polyreactivity |
| QVQLVETGGGLVQAGGSLRLSCAASGRIFHLYAMGWYRQAPGKERELVAAITFSGGSTYYADSVKGRFTISRDTAKNTVYLQMNSLKPEDTAVYYCAKRSFYWFSSRLPFKYDYWGQGTQVTVSS | low polyreactivity |
| QVQLVETGGGLVQAGGSLRLSCAASGRNYTYTMGWYRQAPGKERELVAAITYSGGSTYYADSVKGRFTISRDNAKNTVYLQMNSLKPEDTAVYYCAAVGRWPRYYYWGQGTQVTVSS | high polyreactivity |
